In patent US20230220071A1 (Hoffmann-La Roche, published 2023):

Columns and labels:
[1] = target: T1, human transferrin receptor (BIAcore, construct not stated) (human, UniProt P02786 89-760); assay: SPR (BIAcore)
T1 construct: also called huTfR

[2] = target: T2, cynomolgus transferrin receptor (BIAcore, construct not stated) (cynomolgus, UniProt H9EXL1 89-760 (rhesus entry)); assay: SPR (BIAcore)
T2 construct: also called cyTfR; Cyno TfR

[3] = target: T3, human transferrin receptor on stably transfected CHO-K1 cells (human, UniProt P02786 1-760); assay: FACS on hTfR-CHO cells
T3 construct: whole, on cells; also called hTfR-CHO; huTfR

[4] = target: T4, cynomolgus transferrin receptor on stably transfected CHO-K1 cells (cynomolgus); assay: FACS on cyTfR CHO cells
T4 construct: whole, on cells; also called Cyno TfR-CHO; cyTfR

[5] = target: T4, cynomolgus transferrin receptor on …; assay: FACS, cyno TfR against human TfR
[6] = target: T1, human transferrin receptor (BIAcore, …); assay: SPR (BIAcore), human TfR against cyno TfR
[7] = target: T5, biotinylated cynomolgus transferrin receptor (cynomolgus); assay: SPR BIAcore T200, biotinylated TfR captured, 25 C
T5 chain: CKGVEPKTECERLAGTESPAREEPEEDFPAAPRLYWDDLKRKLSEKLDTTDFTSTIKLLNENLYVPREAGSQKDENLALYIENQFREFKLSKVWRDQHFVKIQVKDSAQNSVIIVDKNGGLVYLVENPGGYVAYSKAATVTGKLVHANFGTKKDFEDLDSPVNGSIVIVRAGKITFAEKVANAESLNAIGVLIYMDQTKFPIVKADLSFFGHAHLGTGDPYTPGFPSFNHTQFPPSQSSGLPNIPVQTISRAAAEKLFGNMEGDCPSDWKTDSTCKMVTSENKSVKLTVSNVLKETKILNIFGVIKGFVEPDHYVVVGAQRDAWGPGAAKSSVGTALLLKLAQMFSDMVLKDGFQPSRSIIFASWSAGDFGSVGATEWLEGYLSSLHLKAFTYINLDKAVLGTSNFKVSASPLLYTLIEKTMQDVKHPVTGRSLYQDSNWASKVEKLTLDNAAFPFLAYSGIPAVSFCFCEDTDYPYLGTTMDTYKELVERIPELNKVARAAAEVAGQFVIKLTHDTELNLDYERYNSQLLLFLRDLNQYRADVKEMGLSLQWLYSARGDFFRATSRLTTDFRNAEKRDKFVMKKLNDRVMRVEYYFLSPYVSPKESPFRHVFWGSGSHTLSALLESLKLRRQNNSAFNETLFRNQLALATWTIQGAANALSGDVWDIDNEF
Protocol: For all analysis the Biotin CAPture Kit from GE Healthcare (Instruction 28-9242-34 AB) was used. First the chip was rehydrated by docking it in the BIAcore T200 instrument. After that, the chip was left on standby with running buffer overnight. For surface preparation the Biotin CAPture Reagent was diluted 1:100 in running buffer (1×PBS, supplemented with 0.25 M NaCl). This solution was injected on Flow Cells 1 to 4 for 360 sec with a flow rate of 2 μL/min. Next the sensor surface was conditioned with three one-minute injections of regeneration solution provided in the Biotin CAPture Kit. This has to be done for the docking procedure or for the first time or after storage. A 100 nM human or cynomolgus, respectively, mono-biotinylated transferrin receptor solution should be injected on Flow Cell 2 for 30 sec at a flow rate of 10 μL/min. […] They were injected on the “hu-TfR-flow cell” (e.g. Flow Cell 2 as prepared as outlined above) with an injection time of 180 sec (association) and a flow rate of 10 μL/min. After dissociation phase of 600 sec the surface was regenerated according to the manufacturer's instructions with the regeneration solution provided in the Biotin CAPture Kit and the next cycle was carried out.
The kinetic data was evaluated using the BIAcore T200 evaluation software. Especially the dissociation rate constants of the different human transferrin receptor binders were taken into account after the application of the 1:1 Langmuir binding model.

[8] = target: T5, biotinylated cynomolgus transferrin …; assay: SPR BIAcore B4000, biotinylated TfR captured, 25 C
Protocol: A CAP sensor chip (provided in the Biotin CAPture Kit, series S #28-9202-34 GE) was mounted into a BIAcore B4000 system, normalized and addressed in a hydrodynamic manner, according to the manufacturer's instructions. In the first cycle the CAP reagent (as provided in the Kit) was addressed to spot 1, 2, 4 and 5 with a flow rate of 10 μL/min for 300 sec. The human transferrin receptor capture took place in spot 1 (human transferrin receptor-biotinylated) and spot 5 (cynomolgus transferrin receptor-biotinylated) with a flow rate of 10 μL/min and a contact time of 30 sec. The receptors were diluted to a concentration of 50 nM with running buffer (1×PBS #28995084, GE Healthcare, supplemented with 0.25 M NaCl). The antibodies were injected into all flow cells in a concentration series of 100 nM, 50 nM, 25 nM and 0 nM for 180 sec at a flow speed of 30 μL/min. Dissociation time was set to 300 sec. Regeneration of the whole complex from the CAP chip has been performed utilizing the regeneration solution provided in the Biotin CAPture Kit (120 sec with a flow rate of 10 μL/min). To control the active protein concentration a second cycle was performed in spot 5 utilizing biotinylated protein A (#P2165-2MG, Sigma) with a flow rate of 10 μL/min and a contact time of 30 sec. Spot 1 was kept empty in this control cycle. The antibodies and the regeneration were handled like in cycle 1. Relevant kinetic data was calculated using the BIAcore B4000 evaluation software. The dissociation from the human transferrin receptor has been determined applying the 1:1 dissociation fit.

B1: murine anti-transferrin receptor antibody 128.1 (antibody, V domains shown)
VH: QVQLVQSGAEVKKPGASVKVSCKASGYTFTGYTMNWVRQAPGQGLEWMGRINPHNGGTDYAQKFQGRVTMTRDTSISTAYMELSRLRSDDTAVYYCARGYYYYSLDYWGQGTLVTVSS
VL: DIQMTQSPSSLSASVGDRVTITCRASSSIRYIHWYQQKPGKAPKRLIYDTSNLASGVPSRFSGSGSGTEFTLTISSLQPEDFATYYCHQRNSYPWTFGQGTRLEIK
notes: Mouse anti-human TfR antibody
With B1 the koff [1] was 0.000606 s⁻¹, the koff [2] was 0.0547 s⁻¹ and the EC50 [3] was 0.096 µg/mL. The EC50 [4] was 0.314 µg/mL, the “ratio EC50 Cyno/human” value [5] was 3.3 and the “ratio max Cyno/human” value [5] was 0.6. For the same binder, the “ratio t1/2 human/Cyno” value [6] was 90.2, the Kd [7] was 136 nM and the koff [7] was 0.0733 s⁻¹. The kon [7] was 541000 M⁻¹ s⁻¹ and the koff [8] was 0.0778 s⁻¹.
